In US20250345378A1 (priority 2022, published 2025):

B1: Colicin U (protein)
chain: MPGFNYGGHGDGTGWSSERGDGPAPGGGMQGNGGGHSGNNDSGSNSVSQQISAIQNDQKLKQKVVNMLIAARKMNPDAKMILGSIAPSGVMQVTIEGVTSTQARQLGLGGLVMGYNASGVIGAVGEIDTGHRLNASGASTPGSETSVDSFVNGQKPAEEWHAVAKDSWTGAGPVNTGLVNNAIKSVRIIKKGYVTGVLTPEEVMNKAEYKAMRQAFDSLPLAKQGEAVRQIVAAWSLAYQDFPVNLKKEMGRVTERIVDAINLALILNQTESRLSESQKNVDVANQIISDTVKAINDVNKKIAEKRNQQVSLTDLMNKKQKEVEDLKKIFKNHSYHRIRDAQREYDDARNKYALLASDINALQAQVSGLTARKQQAEQNKAAAEKAKADAAAKAAAEKAAAEAKAKAEAEKARKEAEEKANDEKAVLTKASEIIISVGDKAGEYLGDKYKVLSREIADNIKNFQGKTIRSYDEAMASVNKLMANPDLKINAADRDAIVNAWKAFDAEDMGNKFAALGKTFKAADYVMKANNVREKSIEGYQTGNWGPLMLEIESWVLSGIASAVALSFFSAIFGTFAMLGVFSTSLAGILAVILAGLVGALIDDNFVDKLNNEIIRPAY
modifications: Colicin U
B2: Colicin 10 (protein)
chain: MDKVTDNSPDVESTESTEGSFPTVGVDTGDTITATLATGTENVGGGGGAFGGASESSAAIHATAKWSTAQLKKHQAEQAARAAAAEAALAKAKSQRDALTQRLKDIVNDALRANAARSPSVTDLAHANNMAMQAEAERLRLAKAEQKAREEAEAAEKALREAERQRDEIARQQAETAHLLAMAEAAEAEKNRQDSLDEEHRAVEVAEKKLAEAKAELAKAESDVQSKQAIVSRVAGELENAQKSVDVKVTGFPGWRDVQKKLERQLQDKKNEYSSVTNALNSAVSIRDAKKTEVQNAEIKLKEAKDALEKSQVKDSVDTMVGFYQYITEQYGEKYSRIAQDLAEKAKGSKFNSVDEALAAFEKYKNVLDKKFSKVDRDDIFNALESITYDEWAKHLEKISRALKVTGYLSFGYDVWDGTLKGLKTGDWKPLFVTLEKSAVDFGVAKIVALMFSFIVGAPLGFWGIAIITGIVSSYIGDDELNKLNELLGI
modifications: Colicin 10

Legend:
[1] = tested on: E. coli strain ATCC 700928; experiment: Mouse UTI model, CK570 IU or IV: bacterial burden in kidneys, bladder, urine; type: in vivo, C3H/OuJ mice; conditions: each tissue, all timepoints
Description: The vehicle used in this study was 1×TBS. […] C3H/OuJ female mice, aged approximately 8 weeks and weighing 21 to 24 grams, were used in this study. Mice were housed with 1 to 5 animals per cage and were provided food (5P76 Prolab isopro irradiated lab diet) and water ad libitum. […] Each mouse was then placed on a board, ventral side up, with the nose inserted into a nose cone supplying isoflurane. The lower abdomen was gently massaged to expel any urine in the bladder. […] For IV administration, mice were manually restrained in a restrainer device, and study treatment was administered via the lateral tail vein. […] For IU administration, the same method was used as for the original administration of E. coli. A dose volume of 50 μL was used for IU administration. […] All CFU data were log-transformed.

E. coli strain b3370 = experiment: Neutropenic thigh model, Colicin 10 and Colicin U (Study 23-END-056); type: in vivo, ICR mouse; conditions: 4 h and 7 h; 295 nM Colicin 10, 29.5 nM Colicin U
Description: Study 23-END-056 was performed to evaluate the statistical difference between Control and Colicin treatment and sustained reduction of bacteria burden to LOD with colicin treatment in an ICR mouse model (FIG. 51). Specifically, the efficacy of 29.5 nM Colicin U, and combination therapy of both of 295 nM Colicin 10 & 29.5 nM Colicin U were evaluated in an ICR mouse model compared with no treatment (Table 40 and FIG. 52). In these experiments, due to high endotoxin, Colicin U was diluted 1:10 more than Colicin 10. At the 4 h and 7 h time points, treatment with 295 nM Colicin 10 lowered CFU, whereas no change was seen after treatment with 29.5 Colicin U.

[2] = tested on: E. coli strains b3411 and b3370; experiment: In vitro CFU reduction by purified colicins; type: cell-based, Escherichia coli; conditions: ~30 min, then regrowth
Description: Colicins produced an immediate significant reduction of CFU/mL (˜30 min) after adding colicins before bacterial regrowth.

Row | Molecule | bacterial burden, positive control [1] | CFU in mouse thigh compared with no treatment (E. coli strain b3370) | CFU reduction after adding colicins [2]
1 | O=C(O)c1cn(C2CC2)c2cc(N3CCNCC3)c(F)cc2c1=O [Ciprofloxacin] | significantly reduced bacterial burden to the LOD in each tissue | – | –
2 | B1 | – | no change | CFU reduction was observed
3 | B2 | – | lowered CFU | CFU reduction was observed
